Measured values: patent US20210101984A1 (JIANGSU HENGRUI MEDICINE, published 2021)

How the values were obtained:
[1] = biological target: B7-H3 on U87MG tumor cells (human) (UniProt Q5ZPR3); experiment: flow cytometry on U87MG cells, APC anti-human IgG Fc detection, geometric mean fluorescence
[2] = biological target: T1, murine B7-H3 antigen (R&D cat# 1397-B3-050/CF) (murine, UniProt Q8VE98 29-244); experiment: SPR (Biacore T200), antibody captured on Protein A chip, antigen in flow, 1:1 Langmuir fit
T1 construct: Commercial protein; also called mouse B7-H3
T1 sequence: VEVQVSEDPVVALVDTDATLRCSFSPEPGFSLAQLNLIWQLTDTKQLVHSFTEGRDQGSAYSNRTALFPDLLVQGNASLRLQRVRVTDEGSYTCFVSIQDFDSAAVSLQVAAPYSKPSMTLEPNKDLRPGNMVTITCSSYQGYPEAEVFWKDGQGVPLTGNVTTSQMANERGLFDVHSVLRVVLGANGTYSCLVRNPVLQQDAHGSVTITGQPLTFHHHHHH
Source text: A biosensor chip Protein A (Cat. # 29127556, GE) was used to affinity capture a certain amount of antibody to be tested. A series diluted of human 2Ig-B7-H3 antigen (Cat. #1949-B3-050/CF, R&D), human 4Ig-B7-H3 antigen (Cat. #11188-H08H, Sino Biological) or murine B7-H3 antigen (Cat. # 1397-B3-050/CF, R&D) was flowed through the surface of the chip. Real-time reaction signal was detected by using Biacore instrument (Biacore T200, GE), in order to obtain association and dissociation curves. After completion of each cycle of dissociation, the biochip was washed and regenerated with glycine-hydrochloric acid regeneration solution (pH 1.5) (Cat.#BR-1003-54, GE). The buffer used in the experiment was HBS-EP buffer solution (pH 7.4) (Cat. # BR-1001-88, GE).
The experimental data was fitted with BIA evaluation version 4.1 GE software in a (1:1) Langmuir model to obtain affinity values.

Sequence of B7-H3 on U87MG tumor cells (human) (Q5ZPR3 29-534): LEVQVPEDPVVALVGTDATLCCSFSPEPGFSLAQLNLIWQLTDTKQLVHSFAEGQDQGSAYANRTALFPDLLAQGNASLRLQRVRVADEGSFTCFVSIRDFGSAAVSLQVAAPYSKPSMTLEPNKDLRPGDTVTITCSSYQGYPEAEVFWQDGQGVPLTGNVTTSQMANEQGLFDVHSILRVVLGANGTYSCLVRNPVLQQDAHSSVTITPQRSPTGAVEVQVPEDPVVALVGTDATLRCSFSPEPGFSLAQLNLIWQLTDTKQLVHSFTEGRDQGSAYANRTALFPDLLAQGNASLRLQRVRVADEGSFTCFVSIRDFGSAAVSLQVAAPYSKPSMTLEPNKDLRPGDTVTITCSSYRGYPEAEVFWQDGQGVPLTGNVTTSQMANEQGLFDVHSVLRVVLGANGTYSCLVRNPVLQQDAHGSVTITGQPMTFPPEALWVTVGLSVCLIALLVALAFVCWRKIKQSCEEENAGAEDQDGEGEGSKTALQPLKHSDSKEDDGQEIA

B1: h1702-IgG1 (antibody, V domains shown)
VH: QVQLVQSGGGVVQPGTSLRLSCAASGFIFSSSAMHWVRQAPGKGLEWVAVISYDGSNKYYVDSVKGRFTISRDNSKNTLYLQMNSLRAEDTAVYYCARSARLYASFDYWGQGALVTVSS
VL: QTVVTQEPSFSVSPGGTVTLTCGLSSGSVSTSHYPSWYQQTPGQAPRMLIYNTNTRSSGVPDRFSGSILGNKAALTITGAQADDESDYYCAIHVDRDIWVFGGGTKLTVLG
notes: Fully human IgG1 with lambda light chain, from an scFv phage library, expressed in HEK293E cells
- EC50 (read off the curve) [1]: 2 nM
- Kd [2]: 1470 nM

B2: h1703-IgG1 (antibody, V domains shown)
VH: QVQLQESGGGLVQPGGSLRLSCAASGFTFSSYAMSWVRQAPGKGLEWVSAISGSGGSTYYADSVKGRYTISRDNSKNTLYLQMNSLRAEDTAVYYCAKGVGPVHALDVWGQGTTVTVSS
VL: DIRLTQSPSSLSASVGDRVTITCRASQSISTYLNWYQQKPGKAPILLINAVSGLQSGVPSRFSGSGSGTHFTLTITSLQPEDFATYYCQQSYSTPMWTFGQGTKVEIKR
notes: Fully human IgG1 with kappa light chain, from an scFv phage library, expressed in HEK293E cells
- Kd [2]: 502 nM
